# Laboratory results taken from patent US8008547B2, “Glyphosate-N-acetyltransferase (GAT) genes” (E.I. duPont de Nemours, priority 2000, dated 2011).
# Assays:
# soybean plants = assay: Greenhouse glyphosate spray of T0 soybean plants expressing GAT transgenes (discoloration score); assay type: in vivo; details: for number of events @ 3-6 / number of events @ 7-8: count in parentheses
# Protocol: Soybean plants expressing GAT variant transgenes were produced using the method of particle gun bombardment (see Klein et al. (1987) Nature 327:70-73) using a DuPont Biolistic PDS1000/He instrument. The selection agent used during the transformation process was hygromycin. Either the hygromycin selectable marker gene remained in the transgenic events or the hygromycin gene was excised by methods known in the art. DNA fragments were prepared with a synthetic constitutive promoter, a GAT variant and PinII terminator. The selectable marker gene, comprising the 35S CaMV promoter, HPT gene and NOS terminator, was cobombarded with the GAT gene variant as described above. Bombarded soybean embryogenic suspension tissue was cultured for one week in the absence of selection agent. Embryogenic suspension tissue was placed in liquid selection medium for 6 weeks. Putative transgenic suspension tissue was sampled for PCR analysis to determine the presence of the GAT gene. Putative transgenic suspension culture tissue was maintained in selection medium for 3 weeks to obtain enough tissue for plant regeneration. Suspension tissue was matured for 4 weeks using standard procedures; matured somatic embryos were desiccated for 4-7 days and then placed on germination induction medium for 2-4 weeks. Germinated plantlets were transferred to soil in cell pack trays for 3 weeks for acclimatization. Plantlets were potted to 10-inch pots in the greenhouse for evaluation of glyphosate resistance.
# To determine the level of glyphosate resistance of transgenic soybeans expressing the GAT variant transgenes, T0 plants were sprayed with glyphosate (Roundup ULTRA MAX™) in the greenhouse. Plant resistance levels were evaluated by […] • 7=minor leaf/stem discoloration • 5=worse leaf/stem discoloration • 3=severely discolored plant or dying plant • 1=dead plant
# One to four plants were sent to the greenhouse from each independent transgenic event. An additional 1-2 plants per event were grown in controlled environment growth chambers for seed production and were not sprayed with glyphosate. The greenhouse plants were sprayed at 1×, 2× or 4× glyphosate (1× glyphosate=26 ounces/acre of RoundUp ULTRA MAX™) 3-4 weeks after transfer to soil. The T0 plant discoloration scores with 2× and 4× spray rates are shown in Table 10 and Table 11, respectively.
# tobacco plants = assay: Herbicide spray tests of GAT expressing tobacco plants; assay type: in vivo, Nicotiana tabacum; details: transgenic GAT tobacco; for plant response two weeks after glyphosate spray: 0.5, 2 or 4× glyphosate (1× = 32 oz/acre of 40% ai); for survival after second spray: 8× glyphosate dose three weeks later
# Protocol: Tobacco shoots generated as described in EXAMPLE 9 were excised from the explants and transferred to basal root induction (BRI) medium composed of half-strength Murashige and Skoog (MS) medium, pH 5.7, with 1.5% sucrose, 0.3% Gelrite, 0-200 uM glyphosate and 400 ug/ml Timentin. Rooted plants and axillary shoots were clonally propagated by cutting the stem and transferring it to fresh BRI medium until the desired number of clones was obtained. Rooted plants were carefully removed from the solid medium. Prior to placing the plants into small pots of soil, the roots were washed to remove any remaining Gelrite. A protective plastic cover was kept over the plants for at least one week until the plants were well established.
# To determine if GAT expressing tobacco plants could tolerate simulated field rate sprays of glyphosate, clonal lines of several events per GAT variant were tested. A typical test was set up as follows: One clone from each event was sprayed with 1 ml of solution containing the isopropylamine salt of glyphosate (Sigma P5671) and 0.125% Triton X-100, pH 6.8 such that the amount of active ingredient sprayed was equivalent to that present in commercial glyphosate products. For example, to achieve 32 oz/acre (1×) of herbicide containing 40% active ingredient (“ai”), 2.4 ul of 40% ai formulation was diluted into 1 ml water and sprayed on a plant in a 4-inch square pot (16 in^2). A mock application (0×) with surfactant only was also included. In some cases a second spray was applied 1-4 weeks later. Plants were kept in controlled growth rooms at 25° C. and 70% humidity with 16 hr light.
# Seed-grown wild type plants were also sprayed. […] All 0× plants were healthy, including the non-GAT control plants. Three weeks later all of the surviving plants were sprayed with an 8× dose.
# [1] = 10 days after 2X glyphosate (1× = 26 ounces/acre), 7=minor leaf/stem discoloration
# [2] = 10 days after 2X glyphosate, 5=worse discoloration, 3=severely discolored or dying
Molecule,% EVENTS @ 7-8 (soybean plants; [1]),% EVENTS @ 3-6 (soybean plants; [2]),number of events @ 3-6 (soybean plants; 10 days after 2X glyphosate),number of events @ 7-8 (soybean plants; 10 days after 2X glyphosate),% EVENTS @ 3-6 (soybean plants; 10 days after 4X glyphosate),% EVENTS @ 7-8 (soybean plants; 10 days after 4X glyphosate),number of events @ 3-6 (soybean plants; 10 days after 4X glyphosate),number of events @ 7-8 (soybean plants; 10 days after 4X glyphosate),plant response two weeks after glyphosate spray (tobacco plants),survival after second spray (tobacco plants)
"SEQ ID NO: 824: GAT gene variant expressed in transgenic soybean (nucleic acid, Synthetic DNA Sequence; CDS (1)...(441); 18-28D9c, GAT gene variant expressed in transgenic soybean) DNA: ATGATAGAGGTGAAACCGATTAACGCAGAGGATACCTATGAACTAAGGCATAGAATACTCAGACCAAACCAGCCGATAGAAGCGTGTATGTTTGAAAGCGATTTACTTCGTGGTGCATTTCACTTAGGCGGCTTTTACAGGGGCAAACTGATTTCCATAGCTTCATTCCACCAGGCCGAGCACTCGGAACTCCAAGGCCAGAAACAGTACCAGCTCCGAGGTATGGCTACCTTGGAAGGTTATCGTGAGCAGAAAGCGGGATCAACTCTAGTTAAACACGCTGAAGAAATCCTTCGTAAGAGGGGGGCGGACATGCTTTGGTGTAATGCGAGGACATCCGCCTCAGGCTACTACAAAAAGTTAGGCTTCAGCGAGCAGGGAGAGATATTTGACACGCCGCCAGTAGGACCTCACATCCTGATGTATAAAAGGATCACATAA",8%,74%,23,3,43%,8%,10,2,,
"SEQ ID NO: 190: evolved GAT gene (nucleic acid, Synthetic DNA Sequence; 0_5B8, evolved GAT gene) DNA: ATGATAGAGGTGAAACCGATTAACGCAGAGGATACCTATGAACTAAGGCATAAAATACTCAGACCAAACCAGCCGATAGAAGCGTGTATGTATGAAAGCGATTTACTTCGTGGTGCATTTCACTTAGGCGGCTTTTACAGGGGCAAACTGATTTCCATAGCTTCATTCCACCAGGCCGAGCACTCAGACCTCCAAGGCCAGAAACAGTACCAGCTCCGAGGTATGGCTACCTTGGAAGGTTATCGTGATCAGAAAGCGGGATCGAGTCTAATTAGACACGCTGAACAAATTCTTCGTAAGAGGGGGGCGGACTTGCTTTGGTGCAATGCGCGGACATCCGCCTCAGGCTACTACAAAAAGTTAGGCTTCAGCGAGCAGGGAGAGATATTTGATACGCCGCCAGTAGGACCTCACATCCTGATGTATAAAAGGCTCACA",,,,,,,,,survived the spraying procedure without signs of glyphosate damage,all GAT plants survived
"SEQ ID NO: 193: GAT gene variant (nucleic acid, Synthetic DNA Sequence; 0_5D3, GAT gene variant) DNA: ATGCTAGAGGTGAAACCGATTAACGCAGAGGATACCTATGAACTAAGGCATAGAATACTCAGACCAAACCAGCCGATAGAAGCGTGTATGTATGAAAGCGATTTACTTCGTGGTGCATTTCACTTAGGCGGCTATTACAGGGGCAAACTGATTTCCATAGCTTCATTCCACCAGGCCGAGCACTCAGAACTCCAAGGCCAGAAACAGTACCAGCTCCGAGGTATGGCTACCTTGGAAGGTTATCGTGAGCAGAAAGCGGGATCGAGTCTAATTAAACACGCTGAAGAAATTCTTCGTAAGAGGGGGGCGGACTTGCTTTGGTGTAATGCGCGGACATCCGCCTCAGGCTACTACAAAAAGTTAGGCTTCAGCGAGCAGGGAGAGATATTTGAAACGCCGCCAGTAGGACCTCACATCCTGATGTATAAAAGGATCACATAA",15%,11%,3,4,,,,,survived the spraying procedure without signs of glyphosate damage,all GAT plants survived
